Biological target: VaERF16-GFP (Vitis amurensis 'Shuang You')

Work on VaMYB306-HA (natural protein) yielded a dual-luciferase assay in tobacco leaves: activation of the VaPDF1.2 promoter (LUC/REN) by 62-SK-VaERF16 and 62-SK-VaMYB306 co-expressed (untagged full-length effectors) of 3.5 fold.
